Measurements reported in the Immune Epitope Database (IEDB).

Target: HLA-A*02:01
Experiment: IEDB peptide-MHC binding, cellular MHC/competitive/fluorescence; ≥ and ≤ were set here for values at or beyond the usual limits of such assays
Conditions: source organism: Influenza A virus

Compared with AVATTHSWI, GTSGVESAV is 3-fold lower in IC50: 32.9 µM for the first, 10.8 µM for the second.

In the case of QLVWMACHSAA, the IC50 is reported as 11.4 µM.

Same assay, conditions: source organism: Vaccinia virus WR

First: AAAKTPVIV
Second: AAKTPVIVV
The IC50 of the first is 3.7-fold higher: 34.7 µM for the first, 9.43 µM for the second.

First: CLKNEGVSGL
Second: DLNRMPTDML
The IC50 of the first is 2.7-fold lower: 6.3 µM for the first, 17.3 µM for the second.

DQDTMLFASA and DTIAHINTL are within 1.5-fold of each other in IC50: 7.38 µM for the first, 10.1 µM for the second.

First: DTLVKSGLT
Second: DVDIPTFNSL
The IC50 of the first is higher: at least 70 µM for the first, 18.2 µM for the second. The second is the more potent here.

ELKDLLNVT and EMKYALINL are within 1.5-fold of each other in IC50: 51.6 µM for the first, 41.2 µM for the second.

Compared with ETLFGSYIT, EVTPEYIKDL is 2.4-fold lower in IC50: 15.6 µM for the first, 6.5 µM for the second. The second is the more potent here.

FLRPVLKAM and FTEEQQQSFM are within 1.5-fold of each other in IC50: 11.9 µM for the first, 10.1 µM for the second.

Going from FTSYKRFVT to GINNVQSLI, the IC50 falls from at least 70 µM to 11.7 µM.

GTKGKLYIA and HMYRGGNGNT are within 1.5-fold of each other in IC50: 23.3 µM for the first, 19.3 µM for the second.

IADIRDKYM and IAVANCVRNL are within 1.5-fold of each other in IC50: 11.3 µM for the first, 13.6 µM for the second.

Compared with IISTDQDTML, IQKDINITHT is 4.4-fold higher in IC50: 8.57 µM for the first, 37.4 µM for the second. The first is the more potent here.

Going from ITHTNITTLL to KIDILQMREI, the IC50 falls from 11.9 µM to 6.51 µM (1.8-fold). The second is the more potent here.

Going from KIKQTGINNV to KVTVPTNDHI, the IC50 rises from 7.3 µM to 13.2 µM (1.8-fold).

Compared with LQWDDNIPEL, MIGNYFSGVL is 1.7-fold lower in IC50: 9.52 µM for the first, 5.76 µM for the second.

Going from NIDSIMSMM to NIKISLNEI, the IC50 rises from 5.14 µM to 21 µM (4.1-fold). The first is the more potent here.

NITPDDGLGL and QLVFNSISA are within 1.5-fold of each other in IC50: 6.53 µM for the first, 9.42 µM for the second.

QLYTISSESL and RLYDYFTRVT are within 1.5-fold of each other in IC50: 5.29 µM for the first, 6.11 µM for the second.

Compared with RVLYDEFVT, VIPDELIDVL is 2.4-fold higher in IC50: 13.5 µM for the first, 33 µM for the second.

YIEDELRRA showed an IC50 of 5.41 µM.

Target: HLA-A*02:06
Experiment: as above
Conditions: source organism: Hepacivirus hominis

With VLIVMLLFA the IC50 was 8.42 µM.

Same assay, conditions: source organism: Influenza A virus

Going from AVATTHSWI to CLINDPWVL, the IC50 falls from 28 µM to 6.16 µM (4.5-fold). The second is the more potent here.

First: GTSGVESAV
Second: QLVWMACHSAA
The IC50 of the first is lower: 11.4 µM for the first, at least 70 µM for the second.

Same assay, conditions: source organism: Mammarenavirus whitewaterense

In the case of LDFAKVASV, the IC50 is reported as 10.6 µM.

Same assay, conditions: source organism: Vaccinia virus WR

Compared with AAAKTPVIV, AAKTPVIVV is 2.7-fold lower in IC50: 67.3 µM for the first, 25.3 µM for the second. The second is the more potent here.

Going from CLKNEGVSGL to DIMTSTRTI, the IC50 rises from 14.1 µM to 21.8 µM (1.5-fold).

First: DLFMSHVKSV
Second: DLNAVTTNNL
The IC50 of the first is 2.6-fold higher: 19.8 µM for the first, 7.52 µM for the second.

Compared with DLNRMPTDML, DTGKKELAL is 3.3-fold lower in IC50: 47.4 µM for the first, 14.2 µM for the second.

Compared with DTIAHINTL, DTLVKSGLT is 4.8-fold higher in IC50: 11.1 µM for the first, 52.9 µM for the second.

Compared with DVDIPTFNSL, EIMDKEQLL is 2.7-fold higher in IC50: 9.71 µM for the first, 26.4 µM for the second.

First: ELKDLLNVT
Second: ELLEMKYAL
The IC50 of the first is 6.4-fold higher: 38.5 µM for the first, 6.02 µM for the second.

Compared with ELSRLRYNL, ELWARISSSL is 2-fold lower in IC50: 18.6 µM for the first, 9.3 µM for the second. The second is the more potent here.

First: EMKYALINL
Second: ETLFGSYIT
The IC50 of the first is higher: at least 70 µM for the first, 15.4 µM for the second. The second is the more potent here.

EVTPEYIKDL and FIQWTGGNI are within 1.5-fold of each other in IC50: 7.68 µM for the first, 5.91 µM for the second.

First: FLRPVLKAM
Second: FTSYKRFVT
The IC50 of the first is 2.3-fold lower: 5.48 µM for the first, 12.4 µM for the second. The first is the more potent here.

GLILFVLAL and HMYRGGNGNT are within 1.5-fold of each other in IC50: 7.81 µM for the first, 9.87 µM for the second.

First: IADIRDKYM
Second: IAVANCVRNL
The IC50 of the first is 6.3-fold higher: 57.8 µM for the first, 9.11 µM for the second.

Compared with IQKDINITHT, ITHTNITTLL is 4.2-fold lower in IC50: 61.7 µM for the first, 14.8 µM for the second.

LIAGIILLI and LLGLILFVL are within 1.5-fold of each other in IC50: 8.22 µM for the first, 8.13 µM for the second.

Going from LLNETAKVI to MAEFEDQLV, the IC50 falls from 15.4 µM to 5.51 µM (2.8-fold).

Going from MLKLFTHDIM to NTNQGNILM, the IC50 falls from 20.3 µM to 5.94 µM (3.4-fold). The second is the more potent here.

Compared with SLCPTKKLV, TIAVSVYGAI is 2.2-fold lower in IC50: 11.9 µM for the first, 5.39 µM for the second. The second is the more potent here.

TLFYCDERDA and YVEHDPRLV are within 1.5-fold of each other in IC50: 19.5 µM for the first, 22.6 µM for the second.

Target: HLA-A*68:02
Experiment: as above
Conditions: source organism: Hepacivirus hominis

First: YLVTRNADV
Second: YLYGIGSAVV
The IC50 of the first is higher: at least 70 µM for the first, 5.12 µM for the second.

Same assay, conditions: source organism: Mammarenavirus brazilense

YNYSLSAAV was tested, and the IC50 was at least 70 µM.

Same assay, conditions: source organism: Mammarenavirus whitewaterense

YNLSLSAAV gave an IC50 of at least 70 µM.

Same assay, conditions: source organism: Vaccinia virus WR

DQDTMLFASA and FTEEQQQSFM are within 1.5-fold of each other in IC50: 5.66 µM for the first, 8.16 µM for the second.

First: GINNVQSLI
Second: GTKGKLYIA
The IC50 of the first is lower: 30.8 µM for the first, at least 70 µM for the second. The first is the more potent here.

Compared with IISTDQDTML, KIDILQMREI is higher in IC50: 32.4 µM for the first, at least 70 µM for the second. The first is the more potent here.

Compared with KIKQTGINNV, KVTVPTNDHI is 5.4-fold lower in IC50: 35.9 µM for the first, 6.59 µM for the second.

First: LQWDDNIPEL
Second: MIGNYFSGVL
The IC50 of the first is 7.6-fold higher: 42.7 µM for the first, 5.62 µM for the second. The second is the more potent here.

Compared with NIDSIMSMM, NIKISLNEI is 1.8-fold higher in IC50: 11.1 µM for the first, 20 µM for the second.

First: NITPDDGLGL
Second: QLVFNSISA
The IC50 of the first is 1.5-fold higher: 12.6 µM for the first, 8.22 µM for the second. The second is the more potent here.

QLYTISSESL and RLYDYFTRVT are within 1.5-fold of each other in IC50: 6.88 µM for the first, 7.34 µM for the second.

First: RVLYDEFVT
Second: VIPDELIDVL
The IC50 of the first is 3-fold higher: 28 µM for the first, 9.26 µM for the second. The second is the more potent here.

First: YIEDELRRA
Second: YLSGTDDEVI
The IC50 of the first is higher: at least 70 µM for the first, 15.8 µM for the second.

Target: HLA-A*02:01
Experiment: IEDB peptide-MHC binding, purified MHC/competitive/radioactivity; ≥ and ≤ were set here for values at or beyond the usual limits of such assays
Conditions: source organism: Hepacivirus hominis

Going from VLIVMLLFA to YLVTRNADV, the IC50 falls from 2.36 µM to 0.296 µM (8-fold).

In the case of YLYGIGSAVV, the IC50 is reported as 0.039 µM.

Same assay, conditions: source organism: Influenza A virus

Work on CLINDPWVL yielded an IC50 of 0.127 µM.

Same assay, conditions: source organism: Mammarenavirus brazilense

YNYSLSAAV was tested, and the IC50 was 0.539 µM.

Same assay, conditions: source organism: Mammarenavirus whitewaterense

Compared with LDFAKVASV, YNLSLSAAV is 19-fold lower in IC50: 4.74 µM for the first, 0.255 µM for the second.

Same assay, conditions: source organism: Vaccinia virus WR

DIMTSTRTI and DLFMSHVKSV are within 1.5-fold of each other in IC50: 3.46 µM for the first, 2.49 µM for the second.

Compared with DLNAVTTNNL, DTGKKELAL is 2.1-fold higher in IC50: 1.61 µM for the first, 3.39 µM for the second. The first is the more potent here.

Going from EIMDKEQLL to ELLEMKYAL, the IC50 falls from 3.96 µM to 0.281 µM (14-fold). The second is the more potent here.

Going from ELSRLRYNL to ELWARISSSL, the IC50 rises from 0.726 µM to 1.32 µM (1.8-fold). The first is the more potent here.

First: FIQWTGGNI
Second: GLILFVLAL
The IC50 of the first is 3-fold higher: 0.525 µM for the first, 0.175 µM for the second. The second is the more potent here.

First: LIAGIILLI
Second: LLGLILFVL
The IC50 of the first is 6.6-fold lower: 0.109 µM for the first, 0.724 µM for the second.

Compared with LLNETAKVI, MAEFEDQLV is 5.3-fold higher in IC50: 0.406 µM for the first, 2.15 µM for the second. The first is the more potent here.

Compared with MLKLFTHDIM, NTNQGNILM is 3.3-fold higher in IC50: 1.38 µM for the first, 4.58 µM for the second.

SLCPTKKLV and TIAVSVYGAI are within 1.5-fold of each other in IC50: 2.67 µM for the first, 2.56 µM for the second.

TLFYCDERDA and YLSGTDDEVI are within 1.5-fold of each other in IC50: 0.238 µM for the first, 0.22 µM for the second.

With YVEHDPRLV the IC50 was 4.74 µM.

Target: HLA-A*02:02
Experiment: as above
Conditions: source organism: Hepacivirus hominis

First: VLIVMLLFA
Second: YLVTRNADV
The IC50 of the first is 29-fold higher: 1.62 µM for the first, 0.055 µM for the second.

YLYGIGSAVV gave an IC50 of 0.012 µM.

Same assay, conditions: source organism: Influenza A virus

AVATTHSWI and CLINDPWVL are within 1.5-fold of each other in IC50: 0.44 µM for the first, 0.31 µM for the second.

GTSGVESAV was tested, and the IC50 was 1.1 µM.

Same assay, conditions: source organism: Mammarenavirus brazilense

With YNYSLSAAV the IC50 was 0.079 µM.

Same assay, conditions: source organism: Mammarenavirus whitewaterense

First: LDFAKVASV
Second: YNLSLSAAV
The IC50 of the first is 14-fold lower: 0.061 µM for the first, 0.868 µM for the second.

Same assay, conditions: source organism: Vaccinia virus WR

AAAKTPVIV and AAKTPVIVV are within 1.5-fold of each other in IC50: 1.9 µM for the first, 1.36 µM for the second.

Compared with CLKNEGVSGL, DIMTSTRTI is 27-fold higher in IC50: 0.127 µM for the first, 3.45 µM for the second.

First: DLFMSHVKSV
Second: DLNAVTTNNL
The IC50 of the first is 1.8-fold higher: 3.38 µM for the first, 1.83 µM for the second.

DLNRMPTDML and DQDTMLFASA are within 1.5-fold of each other in IC50: 1.25 µM for the first, 0.891 µM for the second.

First: DTGKKELAL
Second: DTIAHINTL
The IC50 of the first is 6.4-fold lower: 0.116 µM for the first, 0.747 µM for the second.

DTLVKSGLT and DVDIPTFNSL are within 1.5-fold of each other in IC50: 1.95 µM for the first, 1.81 µM for the second.

First: EIMDKEQLL
Second: ELKDLLNVT
The IC50 of the first is 8.4-fold lower: 0.183 µM for the first, 1.54 µM for the second.

First: ELLEMKYAL
Second: ELSRLRYNL
The IC50 of the first is 1000-fold higher: 0.952 µM for the first, 0.00093 µM for the second. The second is the more potent here.

Compared with ELWARISSSL, EMKYALINL is 17-fold higher in IC50: 0.175 µM for the first, 3.06 µM for the second. The first is the more potent here.

Going from ETLFGSYIT to EVTPEYIKDL, the IC50 falls from 2.49 µM to 1.52 µM (1.6-fold). The second is the more potent here.

Compared with FIQWTGGNI, FLRPVLKAM is 2-fold higher in IC50: 0.683 µM for the first, 1.38 µM for the second. The first is the more potent here.

In the case of FTEEQQQSFM, the IC50 is reported as 1.12 µM.
